The target of assay [1] is ErbB3 on rat Schwann cells (rat) (UniProt Q62799). Nature of the assay: cell-based or functional assay.
The target in assay [2] is ErbB4 on neonatal rat cardiomyocytes (rat) (UniProt Q62956). Nature of the assay: cell-based or functional assay.

Positions count from the first letter of the chain named. Names and notes keep the numbering of the source.

Results on three molecules are retold here after US20220402985A1.

ErbB3 on rat Schwann cells (rat), sequence (Q62799 20-1339): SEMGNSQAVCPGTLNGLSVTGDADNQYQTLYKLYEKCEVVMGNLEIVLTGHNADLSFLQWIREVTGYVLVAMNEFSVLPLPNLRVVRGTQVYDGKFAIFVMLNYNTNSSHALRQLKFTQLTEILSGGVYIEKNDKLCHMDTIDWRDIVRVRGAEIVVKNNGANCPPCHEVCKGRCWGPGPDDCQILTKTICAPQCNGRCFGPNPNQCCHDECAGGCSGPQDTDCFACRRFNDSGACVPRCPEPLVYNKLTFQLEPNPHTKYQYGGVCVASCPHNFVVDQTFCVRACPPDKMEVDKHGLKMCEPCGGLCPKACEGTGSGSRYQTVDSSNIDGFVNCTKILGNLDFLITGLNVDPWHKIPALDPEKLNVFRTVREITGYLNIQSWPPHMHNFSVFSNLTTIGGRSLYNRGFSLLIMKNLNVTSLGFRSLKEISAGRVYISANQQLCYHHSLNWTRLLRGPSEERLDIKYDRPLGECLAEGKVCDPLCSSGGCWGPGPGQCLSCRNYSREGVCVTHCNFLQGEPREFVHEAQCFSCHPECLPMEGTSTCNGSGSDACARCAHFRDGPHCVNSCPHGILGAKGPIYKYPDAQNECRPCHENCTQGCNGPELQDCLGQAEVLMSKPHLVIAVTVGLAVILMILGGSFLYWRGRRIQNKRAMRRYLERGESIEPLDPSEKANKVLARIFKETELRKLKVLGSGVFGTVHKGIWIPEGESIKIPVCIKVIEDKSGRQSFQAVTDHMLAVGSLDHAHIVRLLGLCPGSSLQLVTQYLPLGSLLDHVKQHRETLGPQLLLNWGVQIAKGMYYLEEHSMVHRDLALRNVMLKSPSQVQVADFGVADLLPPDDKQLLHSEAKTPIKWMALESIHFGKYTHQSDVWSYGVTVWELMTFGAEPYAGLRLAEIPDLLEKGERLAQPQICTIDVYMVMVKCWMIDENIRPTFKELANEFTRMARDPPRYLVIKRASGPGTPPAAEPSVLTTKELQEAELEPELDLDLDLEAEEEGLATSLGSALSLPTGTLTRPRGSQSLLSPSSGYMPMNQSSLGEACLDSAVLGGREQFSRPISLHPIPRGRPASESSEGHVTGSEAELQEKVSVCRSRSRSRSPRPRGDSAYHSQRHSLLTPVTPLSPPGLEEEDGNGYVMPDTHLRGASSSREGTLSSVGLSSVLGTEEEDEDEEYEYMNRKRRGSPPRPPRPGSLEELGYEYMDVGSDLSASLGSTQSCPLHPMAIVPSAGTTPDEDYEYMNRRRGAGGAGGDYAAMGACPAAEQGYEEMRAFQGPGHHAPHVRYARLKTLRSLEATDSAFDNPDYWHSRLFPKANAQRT
ErbB4 on neonatal rat cardiomyocytes (rat), sequence (Q62956 26-1308): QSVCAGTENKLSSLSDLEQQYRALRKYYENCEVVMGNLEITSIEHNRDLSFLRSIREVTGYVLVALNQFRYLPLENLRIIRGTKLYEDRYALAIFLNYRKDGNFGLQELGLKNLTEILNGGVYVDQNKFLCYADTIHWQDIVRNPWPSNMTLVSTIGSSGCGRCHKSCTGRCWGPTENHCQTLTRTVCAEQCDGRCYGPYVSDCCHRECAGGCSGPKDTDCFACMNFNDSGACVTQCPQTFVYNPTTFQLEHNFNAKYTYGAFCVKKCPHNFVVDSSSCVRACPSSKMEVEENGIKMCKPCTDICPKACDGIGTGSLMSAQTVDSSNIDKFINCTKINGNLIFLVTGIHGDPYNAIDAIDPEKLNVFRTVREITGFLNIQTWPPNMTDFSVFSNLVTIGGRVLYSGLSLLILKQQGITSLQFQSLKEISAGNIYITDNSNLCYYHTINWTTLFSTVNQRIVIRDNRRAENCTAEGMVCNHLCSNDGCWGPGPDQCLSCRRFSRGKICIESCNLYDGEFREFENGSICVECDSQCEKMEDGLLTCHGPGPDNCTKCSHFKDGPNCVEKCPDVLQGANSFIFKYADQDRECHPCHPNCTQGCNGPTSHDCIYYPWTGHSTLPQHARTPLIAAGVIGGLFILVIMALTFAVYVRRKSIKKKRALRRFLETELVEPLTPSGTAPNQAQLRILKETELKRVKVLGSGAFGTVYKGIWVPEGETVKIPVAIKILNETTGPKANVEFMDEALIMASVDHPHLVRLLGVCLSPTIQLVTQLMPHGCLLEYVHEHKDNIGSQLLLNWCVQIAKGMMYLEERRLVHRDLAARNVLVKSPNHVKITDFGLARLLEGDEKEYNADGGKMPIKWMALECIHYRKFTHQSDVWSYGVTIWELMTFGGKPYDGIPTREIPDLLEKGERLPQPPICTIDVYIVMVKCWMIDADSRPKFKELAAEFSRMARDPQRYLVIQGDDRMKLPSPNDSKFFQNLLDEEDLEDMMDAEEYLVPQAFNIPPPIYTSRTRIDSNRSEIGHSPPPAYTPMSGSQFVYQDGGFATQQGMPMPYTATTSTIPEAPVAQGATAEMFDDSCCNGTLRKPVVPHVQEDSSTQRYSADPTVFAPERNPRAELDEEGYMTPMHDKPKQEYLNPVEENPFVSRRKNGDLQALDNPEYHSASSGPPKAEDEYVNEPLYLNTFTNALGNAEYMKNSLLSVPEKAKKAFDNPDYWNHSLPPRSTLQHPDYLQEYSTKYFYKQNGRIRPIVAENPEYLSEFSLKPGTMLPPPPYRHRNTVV

B1: huNRG1(S177-Q237)(v80)::GG::huFcSEFL2 (Pb) (Fc fusion)
chain: SHLVKCAESHKSFCVNGGECFVIEGSSIPSRYLCKCPNEFTGDRCQKDVMASFYKAEELYQGGDKTHTCPPCPAPELLGGPSVFLFPPKPKDTLMISRTPEVTCVVVDVSHEDPEVKFNWYVDGVEVHNAKTKPCEEQYGSTYRCVSVLTVLHQDWLNGKEYKCKVSNKALPAPIEKTISKAKGQPREPQVYTLPPSREEMTKNQVSLTCLVKGFYPSDIAVEWESNGQPENNYKTTPPVLDSDGSFFLYSKLTVDKSRWQQGNVFSCSVMHEALHNHYTQKSLSLSPGK
As for B1, in assay [1], the Schwann cells (SC) (ErbB3) Avg EC50 stood at 6.65 nM. In assay [2], this molecule had a Cardiomyocyte (CM) (ErbB4) Avg EC50 of 0.998 nM and a Selectivity SC/CM of 7.

B2: huNRG1(S177-Q237)(v80.3)::GG::huFcSEFL2 (Pb) (Fc fusion)
chain: B1 chain with S9R, Q46E
Consider B2, for which the Schwann cells (SC) (ErbB3) Avg EC50 in assay [1] was determined as 3000 nM. In assay [2], this molecule displayed a Cardiomyocyte (CM) (ErbB4) Avg EC50 of 33.6 nM and a Selectivity SC/CM of 89.

B3: huNRG1(S177-F229)(NRGE1C)::1KmodT482V, M493L)::huFcSEFL2 (Pb) (Fc fusion)
chain: SHLVKCGEKHKSFCVNGGECFMIEGPSNPSRYLCKCPNEFTGDRCQEDFMASFGSGSATGGSGSVASSGSGSATHLDKTHTCPPCPAPELLGGPSVFLFPPKPKDTLMISRTPEVTCVVVDVSHEDPEVKFNWYVDGVEVHNAKTKPCEEQYGSTYRCVSVLTVLHQDWLNGKEYKCKVSNKALPAPIEKTISKAKGQPREPQVYTLPPSREEMTKNQVSLTCLVKGFYPSDIAVEWESNGQPENNYKTTPPVLDSDGSFFLYSKLTVDKSRWQQGNVFSCSVMHEALHNHYTQKSLSLSPGK
In assay [1], B3 gave a Schwann cells (SC) (ErbB3) Avg EC50 above 10000 nM. For the same molecule, in assay [2], the CM % Agonism AVG is 75.8%, the Cardiomyocyte (CM) (ErbB4) Avg EC50 was 0.4 nM and the Selectivity SC/CM is above 10000.
